Consider two molecules from publication PMC8344073.

Data set [1] addresses ERα (UniProt P03372 1-595). Nature of the data set: EMSA. Background: A gel shift assay detects complexes by their altered migration in electrophoresis.
Data set [2] deals with T1, RORα (UniProt P35398 1-523).
T1 sequence: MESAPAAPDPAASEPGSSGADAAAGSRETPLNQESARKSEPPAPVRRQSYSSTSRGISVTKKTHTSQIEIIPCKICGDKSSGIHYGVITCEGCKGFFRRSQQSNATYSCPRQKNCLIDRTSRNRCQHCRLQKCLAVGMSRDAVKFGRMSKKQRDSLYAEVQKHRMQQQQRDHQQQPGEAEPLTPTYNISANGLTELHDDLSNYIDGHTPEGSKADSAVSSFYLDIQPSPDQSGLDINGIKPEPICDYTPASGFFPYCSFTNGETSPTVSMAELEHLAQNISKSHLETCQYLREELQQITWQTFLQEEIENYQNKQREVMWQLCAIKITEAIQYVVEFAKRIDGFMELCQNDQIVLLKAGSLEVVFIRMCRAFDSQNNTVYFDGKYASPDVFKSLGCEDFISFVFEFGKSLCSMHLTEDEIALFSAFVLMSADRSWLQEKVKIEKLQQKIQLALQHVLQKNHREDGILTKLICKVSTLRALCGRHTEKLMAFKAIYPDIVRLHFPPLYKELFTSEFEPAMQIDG
The data set can be described thus: EMSA.

Chain of ERα (P03372 whole entry): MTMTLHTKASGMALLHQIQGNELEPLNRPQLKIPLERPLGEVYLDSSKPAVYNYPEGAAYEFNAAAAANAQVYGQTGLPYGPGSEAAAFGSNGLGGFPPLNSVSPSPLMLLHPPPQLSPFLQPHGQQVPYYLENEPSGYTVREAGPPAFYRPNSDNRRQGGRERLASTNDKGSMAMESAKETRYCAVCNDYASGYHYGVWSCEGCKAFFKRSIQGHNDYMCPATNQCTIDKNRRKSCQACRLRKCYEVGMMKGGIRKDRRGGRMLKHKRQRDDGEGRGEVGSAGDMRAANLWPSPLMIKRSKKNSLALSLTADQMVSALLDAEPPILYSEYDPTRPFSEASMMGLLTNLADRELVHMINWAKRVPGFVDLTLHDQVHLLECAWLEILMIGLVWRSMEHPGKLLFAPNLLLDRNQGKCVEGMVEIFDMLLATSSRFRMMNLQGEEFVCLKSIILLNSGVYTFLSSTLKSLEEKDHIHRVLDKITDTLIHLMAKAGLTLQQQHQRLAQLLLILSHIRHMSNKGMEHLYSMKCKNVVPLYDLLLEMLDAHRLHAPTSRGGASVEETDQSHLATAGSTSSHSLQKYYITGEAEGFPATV

B1: SULT1E1 ERE (dsDNA)
DNA 1: GAGGGTCAAGATAAACATT
DNA 2: AATGTTTATCTTGACCCTC
On to B1, for which the binding result in data set [1] was “binds”.

B2: SULT1E1 RORE (dsDNA)
DNA 1: AGAGAATTGAGGTCACAG
DNA 2: CTGTGACCTCAATTCTCT
On to B2, for which, in data set [2], the binding result is reported as “binds”.
